Laboratory results published in paper PMC3875364.
Where two headings read alike, the source gives them in different places.

What was measured:
Test in all cases: fluorescence anisotropy
NC(1-28) = target: T1, NC(1-28) (HIV-1 (NL4-3 isolate), UniProt P12493 378-405)
T1 chain: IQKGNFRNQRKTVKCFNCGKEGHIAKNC

NC(1-55) WT, zinc-bound [1] = target: T2, NC(1-55) WT, zinc-bound (HIV-1 (NL4-3 isolate), UniProt P12493 378-432)
NC(1-35) = target: T3, NC(1-35) (HIV-1 (NL4-3 isolate), UniProt P12493 378-412)
T3 chain: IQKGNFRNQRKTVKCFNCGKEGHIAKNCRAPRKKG

NC(29-55) = NC(29-55) (HIV-1 (NL4-3 isolate), UniProt P12493 406-432)
NC(1-55) WT, zinc-bound [2] = target: T2, NC(1-55) WT, zinc-bound; remark: listed apart in the source

B1: 5'-FAM-DNA20 (ssDNA)
DNA: CTTCTTTGGGAGTGAATTAG
B1 gave a Kd (NC(1-28)) of 731 ± 150 nM, a Kd (NC(1-55) WT, zinc-bound [1]) of 57 ± 22 nM and a Kd (NC(1-35)) of 86 ± 19 nM. The Kd (NC(29-55)) was 867 ± 3 nM and the Kd (NC(1-55) WT, zinc-bound [2]) was 16 ± 5 nM.
